{
  "source": "patent US20070248607A1",
  "about": "“NEGATIVE IMMUNOMODULATION OF IMMUNE RESPONSES BY NKG2D-POSITIVE CD4+ CELLS” (priority 2005, published 2007)",
  "molecules": {"B1": {"name": "sMICA: soluble MICA, NKG2D ligand added to CD4 T cell cultures (protein)", "chain": "EPHSLRYNLTVLSWDGSVQSGFLTEVHLDGQPFLRCDRQKCRAKPQGQWAEDVLGNKTWDRETRDLTGNGKDLRMTLAHIKDQKEGLHSLQEIRVCEIHEDNSTRSSQHFYYDGELFLSQNLETKEWTMPQSSRAQTLAMNVRNFLKEDAMKTKTHYHAMHADCLQELRRYLKSGVVLRRTVPPMVNVTRSEASEGNITVTCRASGFYPWNITLSWRQDGVSLSHDTQQWGDVLPDGNGTYQTWVATRICQGEEQRFTCYMEHSGNHSTHPVPSGK"}},
  "type_in_all_cases": "cell-based",
  "key": {"NKG2D- CD4+ T cells": {"system": "NKG2D- CD4+ T cells", "test": "CD4 T cell proliferation (CFSE dilution, [3H]thymidine incorporation)", "conditions": "anti-CD3 activated CD4 T cell cultures", "method": "(§1) For analysis of CD4^+ T cell proliferation in conjunction with NKG2D expression, 1×10^7 freshly isolated pure CD4^+ T cells/ml PBS were labeled with an equal volume of 2 μM CFSE (Molecular Probes) for 8 min at room temperature. CFSE was quenched with an equal volume of fetal calf serum for one min followed by three washes with AIM-V medium. CFSE labeled cells were then plated, stimulated and phenotypically analysed as described above. Additional ligands tested in this experimental setting included any of either C1R-MICB, ULBP-1, -2, -3, 4, or -5 transfectants, recombinant soluble MICB, or 5% soluble MIC containing serum from a MIC+ tumor patient and MIC− control serum. To test ligand specificity, ligand containing cultures were treated with either 10 μg/ml 6D4 (anti-MICA/B), 10 μg/ml 3F1 (anti-ULBP-1), or appropriately diluted isotype control immunoglobulins. In some experiments, ligand was replaced by solid-phase anti-NKG2D (1D11) at the concentrations ranging from 5-50 ng/ml. In some experiments, ligand/solid-phase mAb were added on day 1, 2 or 3 after the initiation of culture.\nTo assess inhibition of CD4^+ T cell proliferation by standard [^3H]thymidine incorporation experiments, freshly isolated pure CD4^+ T cells were plated at 1×10^5 cells/well in a 96 well flat bottom plate containing titrated cross-linked anti-CD3 (see above) or isotype control Ig with or without titrated recombinant soluble MIC. After 72 hrs at 37° C., plates were pulsed with 3 μCi of [^3H]thymidine (Perkin Elmer) for 12 hrs. Plates were harvested and samples analysed by liquid scintillation using Uni-Filter GF/C plates and a TopCount Counter (both from Packard). Counts from triplicates were averaged."}, "NKG2D+ CD4+ T cells": {"system": "NKG2D+ CD4+ T cells", "test": "NKG2D expression and expansion of activated CD4 T cells", "conditions": "for expansion / proliferation of NKG2D+ CD4+ T cells: anti-CD3 activated CD4 T cell cultures", "method": "For the analysis of NKG2D expression in activated CD4 T cells, freshly isolated pure CD4^+ T cells were plated at 0.3×10^6/2 ml AIM-V medium (Gibco)/well in 24 well plates for various periods of time with or without the presence of mitogenic stimuli and/or the presence of NKG2D ligands. Mitogenic stimuli included either cross-linked anti-CD3 (plates were first coated with AffiniPure F(ab′)2 fragment goat anti-mouse IgG1, Fcγ fragment specific (Jackson ImmunoResearch Laboratories, Inc.) at 10 μg/ml in PBS over night at 4° C. followed by a 4 hr room temperature incubation with anti-CD3 (OKT3, Orthoclone, Ortho Biotech Products, L.P.) at 50 ng/ml (if not indicated otherwise), PHA (5 μg/ml), or PMA/Ionomycin. Ligand additions consisted of either irradiated CLR-MICA and control transfectants at a T cell:transfectant ratio of 5:1, or recombinant soluble MICA at 25 ng/ml if not indicated otherwise. Cells were harvested at various time points after the initiation of culture and tested for NKG2D, CD4 and CD3 coexpression using directly conjugated mAbs for standard three color flow cytometry.\nas §1"}, "CD4 T cells": {"system": "CD4 T cells", "test": "Cell cycle analysis by propidium iodide staining", "conditions": "anti-CD3 activated CD4 T cell cultures"}},
  "data": [
    {"molecule": "B1", "values": [
      {"measurement": "proliferation of NKG2D- CD4+ T cells", "setting": "NKG2D- CD4+ T cells", "result": "inhibition of NKG2D^− CD4^+ T cell proliferation"},
      {"measurement": "expansion / proliferation of NKG2D+ CD4+ T cells", "setting": "NKG2D+ CD4+ T cells", "result": "expansion of NKG2D^+ CD4^+ T cells"},
      {"measurement": "expansion / proliferation of NKG2D+ CD4+ T cells", "setting": "NKG2D+ CD4+ T cells; listed as soluble MICA", "result": "proliferate"},
      {"measurement": "NKG2D induction on normal CD4+ T cells", "setting": "NKG2D+ CD4+ T cells; upon anti-CD3 activation", "result": "enhanced"},
      {"measurement": "cell cycle distribution", "setting": "CD4 T cells", "result": "partial cell cycle arrests in G0/G1"}
    ]}
  ]
}
